{"source": "patent US9040062B2", "about": "“Preparation for treatment of spinal cord injury” (SUMITOMO DAINIPPON PHARMA CO., LTD., priority 2010, dated 2015)", "origin": "cited, not measured here", "molecules": {"B1": {"name": "semaphorin 3A: endogenous protein that retracts the nerve growth cone and suppresses axonal growth (protein, UniProt Q14563 21-771, looked up)", "Semaphorin-3A": "NYQNGKNNVPRLKLSYKEMLESNNVITFNGLANSSSYHTFLLDEERSRLYVGAKDHIFSFDLVNIKDFQKIVWPVSYTRRDECKWAGKDILKECANFIKVLKAYNQTHLYACGTGAFHPICTYIEIGHHPEDNIFKLENSHFENGRGKSPYDPKLLTASLLIDGELYSGTAADFMGRDFAIFRTLGHHHPIRTEQHDSRWLNDPKFISAHLISESDNPEDDKVYFFFRENAIDGEHSGKATHARIGQICKNDFGGHRSLVNKWTTFLKARLICSVPGPNGIDTHFDELQDVFLMNFKDPKNPVVYGVFTTSSNIFKGSAVCMYSMSDVRRVFLGPYAHRDGPNYQWVPYQGRVPYPRPGTCPSKTFGGFDSTKDLPDDVITFARSHPAMYNPVFPMNNRPIVIKTDVNYQFTQIVVDRVDAEDGQYDVMFIGTDVGTVLKVVSIPKETWYDLEEVLLEEMTVFREPTAISAMELSTKQQQLYIGSTAGVAQLPLHRCDIYGKACAECCLARDPYCAWDGSACSRYFPTAKRRTRRQDIRNGDPLTHCSDLHHDNHHGHSPEERIIYGVENSSTFLECSPKSQRALVYWQFQRRNEERKEEIRVDDHIIRTDQGLLLRSLQQKDSGNYLCHAVEHGFIQTLLKVTLEVIDTEHLEELLHKDDDGDGSKTKEMSNSMTPSQKVWYRDFMQLINHPNLNTMDEFCEQVWKRDRKQRRQRPGHTPGNSNKWKHLQENKKGRNRRTHEFERAPRSV"}}, "system": "cultural neuron", "settings": "short time", "data": [{"molecule": "B1", "values": [{"measurement": "concentration inducing growth cone retraction", "value": 10, "unit": "pM"}]}]}
